From article PMC2807035

Tests used:
[1] = biological target: triple-helical collagen peptide GPC-(GPP)5-GPRGQOGVNleGFO-(GPP)5-GPC-NH2; test: ELISA; solid-phase binding assay: DS2-Fc added to 96-well plates coated with triple-helical collagen peptides at 10 μg/ml
[2] = biological target: triple-helical collagen peptide Ac-GPOGPOGPOGPRGQOGVNleGFOGPOGPOG-NH2; test: crystal structure; complex formed at molar peptide:protein ratio ~1.5:1; hanging drop vapor diffusion at room temperature, 0.1 M PCB pH 7.0, 25% PEG1500; 1.6 Å, molecular replacement
[3] = biological target: triple-helical collagen peptide Ac-GPOGPOGPOGPRGQOGVNleGFOGPOGPOG-NH2; test: SEC; analytical size exclusion chromatography, 24 ml Superdex 75, 20 mM MES, 100 mM NaCl pH 6.5; 16 nmol DS domain in PBS alone or mixed with varying amounts of collagen peptide (two-fold molar excess for the complex), incubated 30 min in 0.5 ml

DS2-Fc (Fc-tagged DS domain of DDR2) (Fc fusion)
fold increase of binding against the methionine peptide [1]: 10 fold

triple-helical collagen peptide Ac-GPOGPOGPOGPRGQOGVNleGFOGPOGPOG-NH2
stoichiometry N [2]: 3

B1: DS domain of human DDR2 (His-tagged, residues 26-190) (domain or fragment)
chain: NPAICRYPLGMSGGQIPDEDITASSQWSESTAAKYGRLDSEEGDGAWCPEIPVEPDDLKEFLQIDLHTLHFITLVGTQGRHAGGHGIEFAPMYKINYSRDGTRWISWRNRHGKQVLDGNSNPYDIFLKDLEPPIVARFVRFIPVTDHSMNVCMRVELYGCVWLDG
stoichiometry N [3]: 1
